Measurements published in US20200206266A1 (JULIUS MAXIMILIANS UNIVERSIT T W RZBURG, published 2020).

T1: FLT3 with internal tandem duplication (FLT3-ITD) (human, UniProt P36888 27-543)
T1 sequence (looked up): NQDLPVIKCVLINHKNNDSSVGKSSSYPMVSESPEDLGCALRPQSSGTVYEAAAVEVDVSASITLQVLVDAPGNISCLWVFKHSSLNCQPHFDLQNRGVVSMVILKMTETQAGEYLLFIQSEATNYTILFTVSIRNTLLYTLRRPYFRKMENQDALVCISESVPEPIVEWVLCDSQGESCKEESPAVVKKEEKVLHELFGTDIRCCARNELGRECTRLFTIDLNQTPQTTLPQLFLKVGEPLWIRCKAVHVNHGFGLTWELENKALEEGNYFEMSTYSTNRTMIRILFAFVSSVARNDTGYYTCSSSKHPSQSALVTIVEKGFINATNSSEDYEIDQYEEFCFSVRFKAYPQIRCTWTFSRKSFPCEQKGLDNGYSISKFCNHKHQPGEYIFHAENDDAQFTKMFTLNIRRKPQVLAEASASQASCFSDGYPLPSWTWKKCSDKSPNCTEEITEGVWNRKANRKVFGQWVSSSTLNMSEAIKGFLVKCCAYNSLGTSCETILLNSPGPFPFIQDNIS

T2: FMS-like tyrosine kinase 3 (FLT3), wild-type (human, UniProt P36888 27-993)
T2 construct: whole, on cells; also called CD135; wt FLT3
T2 sequence (looked up): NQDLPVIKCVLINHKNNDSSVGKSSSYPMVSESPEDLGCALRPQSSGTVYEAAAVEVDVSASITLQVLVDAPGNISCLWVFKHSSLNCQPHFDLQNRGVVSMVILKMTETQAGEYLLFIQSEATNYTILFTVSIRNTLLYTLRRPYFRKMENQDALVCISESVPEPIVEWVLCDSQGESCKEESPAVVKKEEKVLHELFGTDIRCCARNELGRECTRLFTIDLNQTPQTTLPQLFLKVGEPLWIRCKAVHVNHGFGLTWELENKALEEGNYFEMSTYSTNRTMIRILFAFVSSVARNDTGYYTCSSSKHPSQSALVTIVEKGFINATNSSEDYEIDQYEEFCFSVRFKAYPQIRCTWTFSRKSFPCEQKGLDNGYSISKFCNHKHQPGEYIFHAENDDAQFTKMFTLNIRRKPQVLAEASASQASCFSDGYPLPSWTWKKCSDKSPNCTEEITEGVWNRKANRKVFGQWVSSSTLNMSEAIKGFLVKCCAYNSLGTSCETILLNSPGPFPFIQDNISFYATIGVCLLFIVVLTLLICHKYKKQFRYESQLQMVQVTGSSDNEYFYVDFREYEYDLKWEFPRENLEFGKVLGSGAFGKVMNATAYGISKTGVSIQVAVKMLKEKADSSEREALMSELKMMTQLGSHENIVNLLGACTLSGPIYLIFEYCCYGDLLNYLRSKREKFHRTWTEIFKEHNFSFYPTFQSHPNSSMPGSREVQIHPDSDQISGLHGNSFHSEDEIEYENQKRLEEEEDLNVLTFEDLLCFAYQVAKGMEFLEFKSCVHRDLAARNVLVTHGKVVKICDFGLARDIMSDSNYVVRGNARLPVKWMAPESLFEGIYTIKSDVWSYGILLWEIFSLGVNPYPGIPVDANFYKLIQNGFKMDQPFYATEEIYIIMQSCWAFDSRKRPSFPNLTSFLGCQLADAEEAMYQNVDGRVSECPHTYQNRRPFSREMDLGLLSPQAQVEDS

B1: BV10 FLT3 CAR (other)
chain: QVQLKQSGPGLVQPSQSLSITCTVSGFSLTNYGLHWVRQSPGKGLEWLGVIWSGGSTDYNAAFISRLSISKDNSKSQVFFKMNSLQADDTAIYYCARKGGIYYANHYYAMDYWGQGTSVTVSSGGGGSGGGGSGGGGSDIVMTQSPSSLSVSAGEKVTMSCKSSQSLLNSGNQKNYMAWYQQKPGQPPKLLIYGASTRESGVPDRFTGSGSGTDFTLTISSVQAEDLAVYYCQNDHSYPLTFGAGTKLELKRESKYGPPCPPCPMFWVLVVVGGVLACYSLLVTVAFIIFWVRSKRSRGGHSDYMNMTPRRPGPTRKHYQPYAPPRDFAAYRSRVKFSRSADAPAYQQGQNQLYNELNLGRREEYDVLDKRRGRDPEMGGKPRRKNPQEGLYNELQKDKMAEAYSEIGMKGERRRGKGHDGLYQGLSTATKDTYDALHMQALPPR
B2: 4G8 FLT3 CAR (other)
chain: QVQLQQPGAELVKPGASLKLSCKSSGYTFTSYWMHWVRQRPGHGLEWIGEIDPSDSYKDYNQKFKDKATLTVDRSSNTAYMHLSSLTSDDSAVYYCARAITTTPFDFWGQGTTLTVSSGGGGSGGGGSGGGGSDIVLTQSPATLSVTPGDSVSLSCRASQSISNNLHWYQQKSHESPRLLIKYASQSISGIPSRFSGSGSGTDFTLSINSVETEDFGVYFCQQSNTWPYTFGGGTKLEIKRESKYGPPCPPCPMFWVLVVVGGVLACYSLLVTVAFIIFWVRSKRSRGGHSDYMNMTPRRPGPTRKHYQPYAPPRDFAAYRSRVKFSRSADAPAYQQGQNQLYNELNLGRREEYDVLDKRRGRDPEMGGKPRRKNPQEGLYNELQKDKMAEAYSEIGMKGERRRGKGHDGLYQGLSTATKDTYDALHMQALPPR
B3: anti-FLT3 BV10 mAb (Biolegend) (antibody, V domains shown)
VH: QVQLKQSGPGLVQPSQSLSITCTVSGFSLTNYGLHWVRQSPGKGLEWLGVIWSGGSTDYNAAFISRLSISKDNSKSQVFFKMNSLQADDTAIYYCARKGGIYYANHYYAMDYWGQGTSVTVSS
VL: DIVMTQSPSSLSVSAGEKVTMSCKSSQSLLNSGNQKNYMAWYQQKPGQPPKLLIYGASTRESGVPDRFTGSGSGTDFTLTISSVQAEDLAVYYCQNDHSYPLTFGAGTKLELKR
B4: mouse-anti-human-FLT3 mAb (clone 4G8, BD Pharmagin, BD Biosciences) (antibody, V domains shown)
VH: QVQLQQPGAELVKPGASLKLSCKSSGYTFTSYWMHWVRQRPGHGLEWIGEIDPSDSYKDYNQKFKDKATLTVDRSSNTAYMHLSSLTSDDSAVYYCARAITTTPFDFWGQGTTLTVSS
VL: DIVLTQSPATLSVTPGDSVSLSCRASQSISNNLHWYQQKSHESPRLLIKYASQSISGIPSRFSGSGSGTDFTLSINSVETEDFGVYFCQQSNTWPYTFGGGTKLEIKR
notes: Bought, fluorochrome-conjugated mouse antibody, used with a mouse IgG1 isotype control; also called anti-FLT3 mAb (4G8); anti-FLT3 4G8 mAb

Legend:
[1] = molecular target: T1, FLT3 with internal tandem duplication …; assay: cell-based or functional assay
[2] = molecular target: T2, FMS-like tyrosine kinase 3 (FLT3), …; assay: flow cytometry, staining of THP-1 cells (FLT3 wild-type)
Excerpt: (a) Flow cytometric analysis of FLT3 expression on AML cell lines (MOLM-13, THP-1, MV4;11) and primary AML blasts (pt #1 and #2).

Binder | IFN-γ production, MOLM-13^creno against MOLM-13^native [1] [fold] | IFN-γ production, MOLM-13^mido against MOLM-13^native [1] [fold] | IFN-γ production, MOLM-13^quiza against MOLM-13^native [1] [fold] | IL-2 production, MOLM-13^creno against MOLM-13^native [1] [fold] | IL-2 production, MOLM-13^mido against MOLM-13^native [1] [fold] | IL-2 production, MOLM-13^quiza against MOLM-13^native [1] [fold] | increase in cytolytic activity, MOLM-13^creno against MOLM-13^native, 2.5:1 E:T [1] [fold] | increase in cytolytic activity, MOLM-13^creno against MOLM-13^native, 5:1 E:T [1] [fold] | increase in cytolytic activity, MOLM-13^mido against MOLM-13^native, 2.5:1 E:T [1] [fold] | increase in cytolytic activity, MOLM-13^mido against MOLM-13^native, 5:1 E:T [1] [fold] | increase in cytolytic activity, MOLM-13^quiza against MOLM-13^native, 2.5:1 E:T [1] [fold] | increase in cytolytic activity, MOLM-13^quiza against MOLM-13^native, 5:1 E:T [1] [fold] | proliferation index, MOLM-13^mido against MOLM-13^native [1] [fold] | further results
B1 | 1.6 | 2.1 | 1.2 | 2 | 6.6 | 1.9 | 1.8 | 1.6 | 1.6 | 1.3 | 3.8 | 1.6 | 1.8 | IFN-γ production, CAR-T vs MOLM-13^native [1]: 1480 pg/mL; proliferation index, MOLM-13^creno against MOLM-13^native [1]: 1.3 fold; proliferation index, MOLM-13^quiza against MOLM-13^native [1]: 1.2 fold
B2 | 1.4 | 2.3 | 1.4 | 3.9 | 12.4 | 1.9 | 2.5 | 2 | 1.5 | 1.4 | 17.7 | 1.6 | 1.8 | % proliferation, CAR-T vs MOLM-13^native [1]: 31.3%
B3 | – | – | – | – | – | – | – | – | – | – | – | – | – | ADCC, percentage of MV4;11 cells eliminated, crenolanib pre-treatment against none [1]: 3 fold; ADCC, percentage of MV4;11 cells eliminated, midostaurin pre-treatment against none [1]: 2 fold; ADCC, percentage of MV4;11 cells eliminated, quizartinib pre-treatment against none [1]: 3.5 fold
B4 | – | – | – | – | – | – | – | – | – | – | – | – | – | binding result [2]: binds
